# Assay results: IntAct's records for PubMed 25910212
# B1: EF-hand domain-containing protein 1 (Homo sapiens), Q5JVL4 (parent)
# chain: MVSNPVHGLPFLPGTSFKDSTKTAFHRSQTLSYRNGYAIVRRPTVGIGGDRLQFNQLSQAELDELASKAPVLTYGQPKQAPPADFIPAHVAFDKKVLKFDAYFQEDVPMSTEEQYRIRQVNIYYYLEDDSMSVIEPVVENSGILQGKLIKRQRLAKNDRGDHYHWKDLNRGINITIYGKTFRVVDCDQFTQVFLESQGIELNPPEKMALDPYTELRKQPLRKYVTPSDFDQLKQFLTFDKQVLRFYAIWDDTDSMYGECRTYIIHYYLMDDTVEIREVHERNDGRDPFPLLMNRQRVPKVLVENAKNFPQCVLEISDQEVLEWYTAKDFIVGKSLTILGRTFFIYDCDPFTRRYYKEKFGITDLPRIDVSKREPPPVKQELPPYNGFGLVEDSAQNCFALIPKAPKKDVIKMLVNDNKVLRYLAVLESPIPEDKDRRFVFSYFLATDMISIFEPPVRNSGIIGGKYLGRTKVVKPYSTVDNPVYYGPSDFFIGAVIEVFGHRFIILDTDEYVLKYMESNAAQYSPEALASIQNHVRKREAPAPEAESKQTEKDPGVQELEALIDTIQKQLKDHSCKDNIREAFQIYDKEASGYVDRDMFFKICESLNVPVDDSLVKELIRMCSHGEGKINYYNFVRAFSN
# partner: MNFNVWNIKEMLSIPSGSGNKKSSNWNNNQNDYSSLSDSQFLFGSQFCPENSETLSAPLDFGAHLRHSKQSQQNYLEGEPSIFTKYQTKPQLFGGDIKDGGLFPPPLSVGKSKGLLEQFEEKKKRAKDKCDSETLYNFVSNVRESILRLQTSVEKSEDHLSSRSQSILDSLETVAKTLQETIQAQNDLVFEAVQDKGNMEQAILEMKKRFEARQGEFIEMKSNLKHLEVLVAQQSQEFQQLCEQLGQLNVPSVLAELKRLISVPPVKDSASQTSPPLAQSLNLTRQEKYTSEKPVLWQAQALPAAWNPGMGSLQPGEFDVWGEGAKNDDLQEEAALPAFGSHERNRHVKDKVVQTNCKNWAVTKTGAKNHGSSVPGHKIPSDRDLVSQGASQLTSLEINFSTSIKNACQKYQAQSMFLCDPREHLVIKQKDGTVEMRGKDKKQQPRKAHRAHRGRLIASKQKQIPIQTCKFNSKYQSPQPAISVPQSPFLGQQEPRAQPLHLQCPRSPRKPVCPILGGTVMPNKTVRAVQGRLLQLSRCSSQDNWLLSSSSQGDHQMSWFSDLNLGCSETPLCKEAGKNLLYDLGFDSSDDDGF
# B2: Synaptogyrin-1 (Homo sapiens), O43759-2 (parent)
# chain: MEGGAYGAGKAGGAFDPYTLVRQPHTILRVVSWLFSIVVFGSIVNEGYLNSASEGEEFCIYNRNPNACSYGVAVGVLAFLTCLLYLALDVYFPQISSVKDRKKAVLSDIGVSAFWAFLWFVGFCYLANQWQVSKPKDNPLNEGTDAARAAIAFSFFSIFTWSLTAALAVRRFKDLSFQEEYSTLFPASAQP
# partner: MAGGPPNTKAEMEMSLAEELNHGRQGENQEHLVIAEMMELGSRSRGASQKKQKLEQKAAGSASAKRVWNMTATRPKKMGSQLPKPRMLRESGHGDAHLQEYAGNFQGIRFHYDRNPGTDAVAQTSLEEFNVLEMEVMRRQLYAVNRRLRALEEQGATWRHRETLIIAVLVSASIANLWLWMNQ
# B3: Neuromedin-B (Homo sapiens), P08949-2 (parent)
# chain: MARRAGGARMFGSLLLFALLAAGVAPLSWDLPEPRSRASKIRVHSRGNLWATGHFMGKKSLEPSSPSPLGTAPHTSLRDQRLQLSHDLLGILLLKKALGVSLSRPAPQIQEAAGTNTAEMTPIMGQTQQRGLDCAHPGKVLNGTLLMAPSGCKS
# B4: U4/U6 small nuclear ribonucleoprotein Prp3 (Homo sapiens), O43395 (parent)
# chain: MALSKRELDELKPWIEKTVKRVLGFSEPTVVTAALNCVGKGMDKKKAADHLKPFLDDSTLRFVDKLFEAVEEGRSSRHSKSSSDRSRKRELKEVFGDDSEISKESSGVKKRRIPRFEEVEEEPEVIPGPPSESPGMLTKLQIKQMMEAATRQIEERKKQLSFISPPTPQPKTPSSSQPERLPIGNTIQPSQAATFMNDAIEKARKAAELQARIQAQLALKPGLIGNANMVGLANLHAMGIAPPKVELKDQTKPTPLILDEQGRTVDATGKEIELTHRMPTLKANIRAVKREQFKQQLKEKPSEDMESNTFFDPRVSIAPSQRQRRTFKFHDKGKFEKIAQRLRTKAQLEKLQAEISQAARKTGIHTSTRLALIAPKKELKEGDIPEIEWWDSYIIPNGFDLTEENPKREDYFGITNLVEHPAQLNPPVDNDTPVTLGVYLTKKEQKKLRRQTRREAQKELQEKVRLGLMPPPEPKVRISNLMRVLGTEAVQDPTKVEAHVRAQMAKRQKAHEEANAARKLTAEQRKVKKIKKLKEDISQGVHISVYRVRNLSNPAKKFKIEANAGQLYLTGVVVLHKDVNVVVVEGGPKAQKKFKRLMLHRIKWDEQTSNTKGDDDEESDEEAVKKTNKCVLVWEGTAKDRSFGEMKFKQCPTENMAREHFKKHGAEHYWDLALSESVLESTD
# partner: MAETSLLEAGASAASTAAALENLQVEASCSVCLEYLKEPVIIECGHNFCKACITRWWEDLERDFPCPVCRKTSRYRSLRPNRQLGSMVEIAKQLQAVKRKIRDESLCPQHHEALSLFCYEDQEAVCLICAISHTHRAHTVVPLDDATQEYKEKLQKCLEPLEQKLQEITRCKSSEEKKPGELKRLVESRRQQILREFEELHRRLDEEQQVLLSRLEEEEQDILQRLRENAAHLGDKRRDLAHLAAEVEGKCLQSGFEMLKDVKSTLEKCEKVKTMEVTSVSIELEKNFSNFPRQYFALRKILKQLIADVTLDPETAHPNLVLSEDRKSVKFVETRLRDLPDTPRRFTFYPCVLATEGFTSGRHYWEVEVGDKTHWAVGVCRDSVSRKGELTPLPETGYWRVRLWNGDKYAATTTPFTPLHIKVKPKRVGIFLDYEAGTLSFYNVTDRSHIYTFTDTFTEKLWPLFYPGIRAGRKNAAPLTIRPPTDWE
# B5: EF-hand domain-containing protein 1 (Homo sapiens), Q5JVL4 (parent)
# chain: B1 chain
# partner: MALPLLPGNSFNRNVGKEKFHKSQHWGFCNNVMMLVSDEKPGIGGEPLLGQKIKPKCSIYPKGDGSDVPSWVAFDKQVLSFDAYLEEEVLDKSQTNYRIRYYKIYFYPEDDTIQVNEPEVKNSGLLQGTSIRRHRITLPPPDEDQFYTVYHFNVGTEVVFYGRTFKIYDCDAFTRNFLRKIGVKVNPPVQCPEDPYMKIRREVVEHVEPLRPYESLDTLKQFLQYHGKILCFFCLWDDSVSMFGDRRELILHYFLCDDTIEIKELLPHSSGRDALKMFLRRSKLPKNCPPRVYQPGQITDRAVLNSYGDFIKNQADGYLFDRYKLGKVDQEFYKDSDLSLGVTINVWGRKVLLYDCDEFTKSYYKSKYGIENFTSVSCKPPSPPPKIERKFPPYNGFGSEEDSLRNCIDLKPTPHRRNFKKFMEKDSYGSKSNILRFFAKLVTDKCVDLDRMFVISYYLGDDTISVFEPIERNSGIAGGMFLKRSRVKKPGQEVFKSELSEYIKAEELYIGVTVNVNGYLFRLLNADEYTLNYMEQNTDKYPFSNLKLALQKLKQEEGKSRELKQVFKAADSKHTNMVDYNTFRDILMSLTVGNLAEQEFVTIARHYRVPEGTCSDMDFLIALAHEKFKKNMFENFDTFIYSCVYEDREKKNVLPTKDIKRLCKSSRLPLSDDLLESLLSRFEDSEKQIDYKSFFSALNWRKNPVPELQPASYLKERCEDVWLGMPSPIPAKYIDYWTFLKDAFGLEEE
# B6: Multifunctional procollagen lysine hydroxylase and glycosyltransferase LH3 (Homo sapiens), O60568 (parent)
# chain: MTSSGPGPRFLLLLPLLLPPAASASDRPRGRDPVNPEKLLVITVATAETEGYLRFLRSAEFFNYTVRTLGLGEEWRGGDVARTVGGGQKVRWLKKEMEKYADREDMIIMFVDSYDVILAGSPTELLKKFVQSGSRLLFSAESFCWPEWGLAEQYPEVGTGKRFLNSGGFIGFATTIHQIVRQWKYKDDDDDQLFYTRLYLDPGLREKLSLNLDHKSRIFQNLNGALDEVVLKFDRNRVRIRNVAYDTLPIVVHGNGPTKLQLNYLGNYVPNGWTPEGGCGFCNQDRRTLPGGQPPPRVFLAVFVEQPTPFLPRFLQRLLLLDYPPDRVTLFLHNNEVFHEPHIADSWPQLQDHFSAVKLVGPEEALSPGEARDMAMDLCRQDPECEFYFSLDADAVLTNLQTLRILIEENRKVIAPMLSRHGKLWSNFWGALSPDEYYARSEDYVELVQRKRVGVWNVPYISQAYVIRGDTLRMELPQRDVFSGSDTDPDMAFCKSFRDKGIFLHLSNQHEFGRLLATSRYDTEHLHPDLWQIFDNPVDWKEQYIHENYSRALEGEGIVEQPCPDVYWFPLLSEQMCDELVAEMEHYGQWSGGRHEDSRLAGGYENVPTVDIHMKQVGYEDQWLQLLRTYVGPMTESLFPGYHTKARAVMNFVVRYRPDEQPSLRPHHDSSTFTLNVALNHKGLDYEGGGCRFLRYDCVISSPRKGWALLHPGRLTHYHEGLPTTWGTRYIMVSFVDP
# partner: B5 partner
# Variants of: B1
# Settings: with iho1_human IHO1, Q8IYA8
row,effect of a mutation on the interaction,Variant
1,disrupting interaction strength,R221H
2,disrupting interaction strength,P77T
3,disrupting interaction strength,A394S
4,disrupting interaction strength,T508R
5,with no effect,R159W

# Variants of: B2
# Settings: with fate1_human FATE1, Q969F0
row,effect of a mutation on the interaction,Variant
1,disrupting interaction strength,MEGGAYGAGKAGGAFDPYTLVRQPHTILRVVSWLFSIVVFGSIVNEGYLNSASEGEEFCIYNRNPNACSYGVAVGVLAFLTCLLYLALDVYFPQISSVEDRKKAVLSDIGVSAFWAFLWFVGFCYLANQWQVSKPKDNPLNEGTDAARAAIAFSFFSIFTWSLTAALAVRRFKDLSFQEEYSTLFPASAQP [K99E]

# Variants of: B3
# Settings: with birc2_human BIRC2, Q13490
# Chain of birc2_human BIRC2, Q13490 (Q13490 whole entry): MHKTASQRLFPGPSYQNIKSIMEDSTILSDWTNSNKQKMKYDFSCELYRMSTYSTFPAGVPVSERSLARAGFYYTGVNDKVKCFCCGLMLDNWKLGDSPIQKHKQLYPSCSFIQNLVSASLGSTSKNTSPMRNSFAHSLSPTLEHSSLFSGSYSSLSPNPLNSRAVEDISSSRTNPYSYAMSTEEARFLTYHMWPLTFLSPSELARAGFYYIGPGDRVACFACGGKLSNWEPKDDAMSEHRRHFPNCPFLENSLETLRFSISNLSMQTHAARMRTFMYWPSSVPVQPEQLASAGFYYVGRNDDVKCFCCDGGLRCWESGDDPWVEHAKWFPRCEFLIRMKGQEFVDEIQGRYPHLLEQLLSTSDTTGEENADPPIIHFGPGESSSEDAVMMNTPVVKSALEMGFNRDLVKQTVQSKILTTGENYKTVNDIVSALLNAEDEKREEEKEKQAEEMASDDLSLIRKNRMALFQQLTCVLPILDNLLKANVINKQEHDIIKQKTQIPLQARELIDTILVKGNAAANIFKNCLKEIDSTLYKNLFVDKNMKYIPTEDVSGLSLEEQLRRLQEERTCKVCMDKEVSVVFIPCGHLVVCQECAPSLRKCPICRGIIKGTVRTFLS
row,effect of a mutation on the interaction,Variant
1,with no effect,MARRAGGARMFGSLLLFALLAAGVAPLSWDLPEPRSRASKIRVHSRGNLWATGHFMGKKSLEPSSPSPLGTAPHTSLRDQRLQLSHDLLGILLLKKALGVSLSRPAPQIQEAAGTNTAEITPIMGQTQQRGLDCAHPGKVLNGTLLMAPSGCKS [M120I]

# Variants of: B4
# Settings: with TRIM39, Q9HCM9-2
row,effect of a mutation on the interaction,Variant
1,disrupting interaction strength,T494M
2,disrupting interaction strength,A489D
3,disrupting interaction strength,P493S

# Variants of: B5
# Settings: with efhc2_human EFHC2, Q5JST6
row,effect of a mutation on the interaction,Variant
1,disrupting interaction strength,P77T
2,with no effect,M448T
3,disrupting interaction strength,R221H
4,with no effect,R159W
5,with no effect,T508R
6,disrupting interaction strength,A394S

# Variants of: B6
# Settings: with efhc2_human EFHC2, Q5JST6
row,effect of a mutation on the interaction,Variant
1,with no effect,N223S
